IntAct's records for PubMed 19966303

B1: Serine/threonine-protein kinase YPK1 (Saccharomyces cerevisiae), P12688 (parent)
chain: MYSWKSKFKFGKSKEEKEAKHSGFFHSSKKEEQQNNQATAGEHDASITRSSLDRKGTINPSNSSVVPVRVSYDASSSTSTVRDSNGGNSENTNSSQNLDETANIGSTGTPNDATSSSGMMTIKVYNGDDFILPFPITSSEQILNKLLASGVPPPHKEISKEVDALIAQLSRVQIKNQGPADEDLISSESAAKFIPSTIMLPGSSTLNPLLYFTIEFDNTVATIEAEYGTIAKPGFNKISTFDVTRKLPYLKIDVFARIPSILLPSKTWQQEMGLQDEKLQTIFDKINSNQDIHLDSFHLPINLSFDSAASIRLYNHHWITLDNGLGKINISIDYKPSRNKPLSIDDFDLLKVIGKGSFGKVMQVRKKDTQKVYALKAIRKSYIVSKSEVTHTLAERTVLARVDCPFIVPLKFSFQSPEKLYFVLAFINGGELFYHLQKEGRFDLSRARFYTAELLCALDNLHKLDVVYRDLKPENILLDYQGHIALCDFGLCKLNMKDDDKTDTFCGTPEYLAPELLLGLGYTKAVDWWTLGVLLYEMLTGLPPYYDEDVPKMYKKILQEPLVFPDGFDRDAKDLLIGLLSRDPTRRLGYNGADEIRNHPFFSQLSWKRLLMKGYIPPYKPAVSNSMDTSNFDEEFTREKPIDSVVDEYLSESVQKQFGGWTYVGNEQLGSSMVQGRSIR
B2: Phospholipid-transporting ATPase DNF1 (Saccharomyces cerevisiae), P32660 (parent)
chain: MSGTFHGDGHAPMSPFEDTFQFEDNSSNEDTHIAPTHFDDGATSNKYSRPQVSFNDETPKNKREDAEEFTFNDDTEYDNHSFQPTPKLNNGSGTFDDVELDNDSGEPHTNYDGMKRFRMGTKRNKKGNPIMGRSKTLKWARKNIPNPFEDFTKDDIDPGAINRAQELRTVYYNMPLPKDMIDEEGNPIMQYPRNKIRTTKYTPLTFLPKNILFQFHNFANVYFLVLIILGAFQIFGVTNPGLSAVPLVVIVIITAIKDAIEDSRRTVLDLEVNNTKTHILEGVENENVSTDNISLWRRFKKANSRLLFKFIQYCKEHLTEEGKKKRMQRKRHELRVQKTVGTSGPRSSLDSIDSYRVSADYGRPSLDYDNLEQGAGEANIVDRSLPPRTDCKFAKNYWKGVKVGDIVRIHNNDEIPADIILLSTSDTDGACYVETKNLDGETNLKVRQSLKCTNTIRTSKDIARTKFWIESEGPHSNLYTYQGNMKWRNLADGEIRNEPITINNVLLRGCTLRNTKWAMGVVMFTGGDTKIMLNSGITPTKKSRISRELNFSVVINFVLLFILCFVSGIANGVYYDKKGRSRFSYEFGTIAGSAATNGFVSFWVAVILYQSLVPISLYISVEIIKTAQAAFIYGDVLLYNAKLDYPCTPKSWNISDDLGQVEYIFSDKTGTLTQNVMEFKKCTINGVSYGRAYTEALAGLRKRQGIDVETEGRREKAEIAKDRDTMIDELRALSGNSQFYPEEVTFVSKEFVRDLKGASGEVQQRCCEHFMLALALCHSVLVEANPDNPKKLDLKAQSPDEAALVATARDVGFSFVGKTKKGLIIEMQGIQKEFEILNILEFNSSRKRMSCIVKIPGLNPGDEPRALLICKGADSIIYSRLSRQSGSNSEAILEKTALHLEQYATEGLRTLCIAQRELSWSEYEKWNEKYDIAAASLANREDELEVVADSIERELILLGGTAIEDRLQDGVPDCIELLAEAGIKLWVLTGDKVETAINIGFSCNLLNNEMELLVIKTTGDDVKEFGSEPSEIVDALLSKYLKEYFNLTGSEEEIFEAKKDHEFPKGNYAIVIDGDALKLALYGEDIRRKFLLLCKNCRAVLCCRVSPSQKAAVVKLVKDSLDVMTLAIGDGSNDVAMIQSADVGIGIAGEEGRQAVMCSDYAIGQFRYLARLVLVHGRWSYKRLAEMIPEFFYKNMIFALALFWYGIYNDFDGSYLYEYTYMMFYNLAFTSLPVIFLGILDQDVNDTISLVVPQLYRVGILRKEWNQRKFLWYMLDGLYQSIICFFFPYLVYHKNMIVTSNGLGLDHRYFVGVYVTTIAVISCNTYVLLHQYRWDWFSGLFIALSCLVVFAWTGIWSSAIASREFFKAAARIYGAPSFWAVFFVAVLFCLLPRFTYDSFQKFFYPTDVEIVREMWQHGHFDHYPPGYDPTDPNRPKVTKAGQHGEKIIEGIALSDNLGGSNYSRDSVVTEEIPMTFMHGEDGSPSGYQKQETWMTSPKETQDLLQSPQFQQAQTFGRGPSTNVRSSLDRTREQMIATNQLDNRYSVERARTSLDLPGVTNAASLIGTQQNN

Variants of: B1
Details: with fpk1_yeast FPK1, P53739
Target sequence in this assay (P53739 whole entry): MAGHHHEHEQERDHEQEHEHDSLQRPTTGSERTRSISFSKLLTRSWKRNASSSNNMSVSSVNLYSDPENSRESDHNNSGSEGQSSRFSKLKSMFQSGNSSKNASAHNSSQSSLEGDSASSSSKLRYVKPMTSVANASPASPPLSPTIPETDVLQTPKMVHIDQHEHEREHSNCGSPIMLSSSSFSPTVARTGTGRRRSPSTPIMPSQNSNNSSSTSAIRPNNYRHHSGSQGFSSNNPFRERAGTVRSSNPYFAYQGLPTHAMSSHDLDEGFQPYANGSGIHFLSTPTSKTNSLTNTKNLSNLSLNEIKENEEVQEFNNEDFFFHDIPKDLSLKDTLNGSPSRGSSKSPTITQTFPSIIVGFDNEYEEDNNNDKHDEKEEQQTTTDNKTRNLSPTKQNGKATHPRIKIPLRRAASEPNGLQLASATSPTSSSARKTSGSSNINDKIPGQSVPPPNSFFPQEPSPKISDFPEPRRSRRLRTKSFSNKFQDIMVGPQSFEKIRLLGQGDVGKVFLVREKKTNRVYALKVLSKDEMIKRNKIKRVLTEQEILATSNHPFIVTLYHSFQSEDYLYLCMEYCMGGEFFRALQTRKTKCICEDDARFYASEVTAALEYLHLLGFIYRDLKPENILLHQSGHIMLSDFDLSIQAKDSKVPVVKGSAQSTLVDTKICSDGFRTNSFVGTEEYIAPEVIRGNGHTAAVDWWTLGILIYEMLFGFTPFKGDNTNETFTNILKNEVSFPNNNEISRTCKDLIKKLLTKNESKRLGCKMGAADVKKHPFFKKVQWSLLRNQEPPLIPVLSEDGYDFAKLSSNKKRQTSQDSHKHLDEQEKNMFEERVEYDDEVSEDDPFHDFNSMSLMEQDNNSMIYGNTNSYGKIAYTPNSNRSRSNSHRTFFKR

Row | Variant | effect of a mutation on the interaction
1 | S51A;S71A | disrupting interaction

Variants of: B2
Details: with fpk1_yeast FPK1, P53739
Target sequence in this assay (P53739 whole entry): as above

Row | Variant | effect of a mutation on the interaction
2 | S1526A;S1552A | decreasing interaction
